Test results taken from patent US7291332B2, “Inflammatory mediator antagonists” (SmithKline Beecham Corporation, priority 1998, dated 2007).
Where a chain is given by its changes, count along the chain named. In names and notes the source's numbering stands.

B1: (4) Y10A: OSM-GST fusion, alanine for Tyr 10 (protein)
chain: AAIGSCSKEARVLLGQLQKQTDLMQDTSRLLDPYIRIQGLDVPKLREHCRERPGAFPSEETLRGLGRRGFLQTLNATLGCVLHRLADLEQRLPKAQDLERSGLNIEDLEKLQMARPNILGLRNNIYCMAQLLDNSDTAEPTKAGRGASQPPTPTPASDAFQRKLEGCRFLHGYHRFMHSVGRVFSKWGESPNRSRR
modifications: left off: a dimerising Fc or GST; large carriers; small tags and cut ends
B2: (11) Q18A: OSM-GST fusion, alanine for Gln 18 (protein)
chain: B1 chain with A10Y, Q18A
modifications: left off: a dimerising Fc or GST; large carriers; small tags and cut ends
B3: (5) R11A: OSM-GST fusion, alanine for Arg 11 (protein)
chain: B1 chain with A10Y, R11A
modifications: left off: a dimerising Fc or GST; large carriers; small tags and cut ends
B4: (17) P116A: OSM-GST fusion, alanine for Pro 116 (protein)
chain: B1 chain with A10Y, P116A
modifications: left off: a dimerising Fc or GST; large carriers; small tags and cut ends
B5: (24) Y126A: OSM-GST fusion, alanine for Tyr 126 (protein)
chain: B1 chain with A10Y, Y126A
modifications: left off: a dimerising Fc or GST; large carriers; small tags and cut ends
B6: (16) M113A: OSM-GST fusion, alanine for Met 113 (protein)
chain: B1 chain with A10Y, M113A
modifications: left off: a dimerising Fc or GST; large carriers; small tags and cut ends
B7: (10) L17A: OSM-GST fusion, alanine for Leu 17 (protein)
chain: B1 chain with A10Y, L17A
modifications: left off: a dimerising Fc or GST; large carriers; small tags and cut ends
B8: (7) L14A: OSM-GST fusion, alanine for Leu 14 (protein)
chain: B1 chain with A10Y, L14A
modifications: left off: a dimerising Fc or GST; large carriers; small tags and cut ends
B9: (14) T21A: OSM-GST fusion, alanine for Thr 21 (protein)
chain: B1 chain with A10Y, T21A
modifications: left off: a dimerising Fc or GST; large carriers; small tags and cut ends
B10: (8) G15A: OSM-GST fusion, alanine for Gly 15 (protein)
chain: B1 chain with A10Y, G15A
modifications: left off: a dimerising Fc or GST; large carriers; small tags and cut ends
B11: (15) D22: OSM-GST fusion, alanine for Asp 22 (protein)
chain: B1 chain with A10Y, D22A
modifications: left off: a dimerising Fc or GST; large carriers; small tags and cut ends
B12: (18) N117A: OSM-GST fusion, alanine for Asn 117 (protein)
chain: B1 chain with A10Y, N117A
modifications: left off: a dimerising Fc or GST; large carriers; small tags and cut ends
B13: (12) K19A: OSM-GST fusion, alanine for Lys 19 (protein)
chain: B1 chain with A10Y, K19A
modifications: left off: a dimerising Fc or GST; large carriers; small tags and cut ends
B14: (19) L119A: OSM-GST fusion, alanine for Leu 119 (protein)
chain: B1 chain with A10Y, L119A
modifications: left off: a dimerising Fc or GST; large carriers; small tags and cut ends
B15: (21) R122A: OSM-GST fusion, alanine for Arg 122 (protein)
chain: B1 chain with A10Y, R122A
modifications: left off: a dimerising Fc or GST; large carriers; small tags and cut ends

Test system: HepG2 B6 cells (STAT-sPAP reporter)
Assay: OSM-GST mutant driven sPAP production in HepG2 B6 assay
Assay type: cell-based, human
Details: for 'Potency': relative to wild type, from Mean %
Method: HepG2 B6 cells were plated into 96 well plates to a final concentration of 3×10^4 cells per well in 100 μl of media (DMEM (Sigma), 10% HI FCS, 1% non-essential amino acids, 2 mM Glutamine, 500 μg ml^−1 G418, (all from Life Technologies)). Cells were allowed to equilibrate for 48 hours. Putative anti-OSM solid compounds were made up to a stock dilution of 20 mM in DMSO and serially diluted 1:3 in DMSO. This was then further diluted in HepG26B assay media, this is as above media but with 1% heat inactivated FCS, low alkaline phosphatase activity (Life Technologies) substituted for 10% HI FCS. Compounds were diluted 1:3 from a top concentration of […] to a final concentration of 0.09 μM in a final concentration of 1% DMSO. (That is 200, 66.67, 22.22, 7.41, 2.47, 0.82, 0.27, 0.09 and 0 μM). The old media was removed from the wells and replaced with diluted compound also containing 2 ng ml^−1 OSM (R&D Systems), cells were incubated for a further 20 hours. Each dilution was performed in triplicate. 20 μl of media was removed from each well and assayed for sPAP activity using pNPP (p-Nitrophenyl phosphate; Sigma), as a substrate. Endogenous alkaline phosphatase is blocked with L-homoarginine. Optical density of substrate is read at 405-650 nm. Concentration of compound is plotted against OD as a measure of sPAP produced and can be analysed to determine IC50 values.
The assay described in Example 7b above was employed. OSM-GST mutants were diluted to a concentration of 100 ng ml^−using the known concentration of intact OSM mutants generated in Example 9b. A wild type OSM-GST was included for control purposes. Dilutions were made in HepG2 B6 media with 1% heat inactivated FCS, low alkaline phosphatase activity. Serial 1:3 dilutions were then made. (100; 33.33; 11.11; 3.7; 1.23; 0.4 ng ml^−1). 3×10^4 HepG2 B6 were dispensed into individual well of a 96 well plate in 100 μl of media. Cells were allowed to equilibrate for 48 hours. Media was then removed and replaced with 100 μl of diluted OSM-GST mutant. Cells were incubated for a further 20 hours. Each dilution was performed in triplicate. 20 μl of media was removed and assayed for sPAP using pNPP as a substrate. Endogenous ALP was blocked with L-homoarginine. O.D. was read at 405-650 nm. The experiment was repeated twice.

| Molecule | Expt 1 EC50 [ng/mL] | Expt 2 EC50 [ng/mL] | 'Potency' | Expt 3 EC50 [ng/mL] |
| --- | --- | --- | --- | --- |
| wild type: wild type human OSM-GST fusion protein [reference compound] | 24 | 32 |  |  |
| B1 | 32.4 | 82 | LESS (>120% Less potent than wild type) |  |
| B2 | 20.2 | 21.7 | MORE (<80% More potent) |  |
| B3 | 28.6 | 27.7 | EQUAL (80-120% Equal potency) |  |
| B4 | 25 | 15 | MORE (<80% More potent) |  |
| B5 | 93 | 10.3 | LESS (>120% Less potent than wild type) | 40.8 |
| B6 | 25.6 | 25 | EQUAL (80-120% Equal potency) |  |
| B7 | 72.7 | 56 | LESS (>120% Less potent than wild type) |  |
| B8 | 19.4 | 24.9 | MORE (<80% More potent) |  |
| B9 | 17 | 10.5 | MORE (<80% More potent) |  |
| B10 | 21 | 17.8 | MORE (<80% More potent) |  |
| B11 | 36.7 | 16 | EQUAL (80-120% Equal potency) |  |
| B12 | 58 | 42.5 | LESS (>120% Less potent than wild type) |  |
| B13 | 23.6 | 11.9 | MORE (<80% More potent) |  |
| B14 | 27.8 | 23 | EQUAL (80-120% Equal potency) |  |
| B15 | 32.4 | 13.8 | EQUAL (80-120% Equal potency) | 47.3 |
